# Test results: publication PMC13381803 (2026)
# T1: Hna with a C-terminal GFP tag (Sinorhizobium meliloti)
# T1 chain: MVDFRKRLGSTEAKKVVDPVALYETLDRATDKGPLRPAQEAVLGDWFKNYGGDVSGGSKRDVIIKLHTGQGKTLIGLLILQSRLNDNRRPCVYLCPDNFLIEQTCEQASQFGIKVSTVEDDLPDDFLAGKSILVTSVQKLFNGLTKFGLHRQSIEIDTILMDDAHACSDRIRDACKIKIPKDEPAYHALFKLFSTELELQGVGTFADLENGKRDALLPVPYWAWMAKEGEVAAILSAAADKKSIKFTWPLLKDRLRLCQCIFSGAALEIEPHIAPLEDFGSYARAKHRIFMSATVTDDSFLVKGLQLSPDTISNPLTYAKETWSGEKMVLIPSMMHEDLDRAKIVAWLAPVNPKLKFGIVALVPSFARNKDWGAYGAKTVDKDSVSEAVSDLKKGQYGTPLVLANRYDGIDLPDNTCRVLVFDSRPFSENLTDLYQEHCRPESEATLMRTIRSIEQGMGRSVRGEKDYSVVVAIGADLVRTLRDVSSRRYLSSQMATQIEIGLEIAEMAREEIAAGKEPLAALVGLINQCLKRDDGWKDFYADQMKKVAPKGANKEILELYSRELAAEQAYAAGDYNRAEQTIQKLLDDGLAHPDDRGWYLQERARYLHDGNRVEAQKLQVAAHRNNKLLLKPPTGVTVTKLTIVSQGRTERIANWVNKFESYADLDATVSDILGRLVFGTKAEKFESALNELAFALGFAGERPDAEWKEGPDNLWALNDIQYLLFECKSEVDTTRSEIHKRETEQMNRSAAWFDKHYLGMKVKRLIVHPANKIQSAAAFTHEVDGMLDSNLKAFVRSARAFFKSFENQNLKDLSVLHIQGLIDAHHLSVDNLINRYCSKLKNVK
# B1: Hna (helicase-nuclease abortive infection), wild type, Sinorhizobium meliloti (enzyme)
# chain: T1 chain
# Tests used:
# [1] = biological target: T1, Hna with a C-terminal GFP tag; assay: FP; without ATP
# [2] = biological target: T1, Hna with a C-terminal GFP tag; assay: FP; with ATP
binder,measurement,setting,value
B1,Kd,[1],4460 nM
same,Kd,[2],337 nM
